Experimental data reported in patent publication US20180346594A1.

What was measured:
[1] = target: 16C3 antigen (human colorectal and pancreatic carcinoma-associated antigen, CPAA, recognized by the 16C3 antibody) (human); experiment: FACS, CFPAC-1 cells, secondary antibody only
[2] = target: 16C3 antigen (human colorectal and pancreatic carcinoma-associated antigen, CPAA, recognized by the 16C3 antibody) (human); experiment: FACS, LS174T cells, secondary antibody only
[3] = target: 16C3 antigen (human colorectal and pancreatic carcinoma-associated antigen, CPAA, recognized by the 16C3 antibody) (human); experiment: FACS, AsPC-1 cells, secondary antibody only
[4] = target: 16C3 antigen (human colorectal and pancreatic carcinoma-associated antigen, CPAA, recognized by the 16C3 antibody) (human); experiment: FACS, AsPC-1 cells, 1 ug antibody
[5] = target: 16C3 antigen (human colorectal and pancreatic carcinoma-associated antigen, CPAA, recognized by the 16C3 antibody) (human); experiment: FACS, AsPC-1 cells, 0.8 ng antibody
[6] = target: 16C3 antigen (human colorectal and pancreatic carcinoma-associated antigen, CPAA, recognized by the 16C3 antibody) (human); experiment: FACS, HT-29 colorectal cells
[7] = target: 16C3 antigen (human colorectal and pancreatic carcinoma-associated antigen, CPAA, recognized by the 16C3 antibody) (human); experiment: FACS, CFPAC-1 pancreatic cells
[8] = target: 16C3 antigen (human colorectal and pancreatic carcinoma-associated antigen, CPAA, recognized by the 16C3 antibody) (human); experiment: FACS, AsPC-1 cells, 5 uL
[9] = target: 16C3 antigen (human colorectal and pancreatic carcinoma-associated antigen, CPAA, recognized by the 16C3 antibody) (human); experiment: FACS, LS174T colorectal cells
[10] = target: 16C3 antigen (human colorectal and pancreatic carcinoma-associated antigen, CPAA, recognized by the 16C3 antibody) (human); experiment: FACS, AsPC-1 pancreatic cells
[11] = target: 16C3 antigen (human colorectal and pancreatic carcinoma-associated antigen, CPAA, recognized by the 16C3 antibody) (human); experiment: FACS, AsPC-1 cells, 4 ng antibody
[12] = target: 16C3 antigen (human colorectal and pancreatic carcinoma-associated antigen, CPAA, recognized by the 16C3 antibody) (human); experiment: FACS, AsPC-1 cells, 100 ng antibody
[13] = target: 16C3 antigen (human colorectal and pancreatic carcinoma-associated antigen, CPAA, recognized by the 16C3 antibody) (human); experiment: FACS, AsPC-1 cells, 20 ng antibody
[14] = target: 16C3 antigen (human colorectal and pancreatic carcinoma-associated antigen, CPAA, recognized by the 16C3 antibody) (human); experiment: FACS, CFPAC-1 pancreatic cells, secondary antibody only
[15] = target: 16C3 antigen (human colorectal and pancreatic carcinoma-associated antigen, CPAA, recognized by the 16C3 antibody) (human); experiment: FACS, AsPC-1 pancreatic cells, secondary antibody only
[16] = target: 16C3 antigen (human colorectal and pancreatic carcinoma-associated antigen, CPAA, recognized by the 16C3 antibody) (human); experiment: FACS, HT-29 colorectal cells, secondary antibody only
[17] = target: 16C3 antigen (human colorectal and pancreatic carcinoma-associated antigen, CPAA, recognized by the 16C3 antibody) (human); experiment: FACS, LS174T colorectal cells, secondary antibody only

Rabbit anti-Human IgG-FITC control (secondary reagent alone) (antibody)
% binding to CFPAC-1 cells [1]: 2.1% | mfi [1]: 20 mfi | % binding to LS174T cells [2]: 3.49% | mfi [2]: 33 mfi | % AsPC-1 tumor cell binding [3]: 2.05% | MFI [3]: 59 MFI

16C3 mAb (murine monoclonal antibody, IgG1 heavy chain, kappa light chain)
% AsPC-1 Cells Stained [4]: 89.5% | mfi [4]: 138 mfi | % AsPC-1 tumor cell binding [5]: 1.28% | MFI [5]: 615 MFI | % Cell Staining [6]: 91% | mfi [6]: 78 mfi | % Cell Staining [7]: 96.2% | mfi [7]: 323 mfi | % AsPC-1 Cells Stained [8]: 81.4% | mfi [8]: 34 mfi | % Cell Staining [9]: 40.6% | mfi [9]: 59 mfi | % Cell Staining [10]: 69.9% | mfi [10]: 36 mfi | % AsPC-1 tumor cell binding [11]: 4.26% | MFI [11]: 52 MFI | % AsPC-1 tumor cell binding [12]: 61.7% | MFI [12]: 228 MFI | % AsPC-1 tumor cell binding [13]: 47.9% | MFI [13]: 69 MFI

Goat anti-Mouse IgG-FITC control (fluorescein-labelled goat anti-mouse antibody, secondary reagent alone)
% Cell Staining [14]: 0.83% | mfi [14]: 14 mfi | % LS174T tumor cell binding [2]: 1.63% | MFI [2]: 43 MFI | % Cell Staining [15]: 2.68% | mfi [15]: 30 mfi | % Cell Staining [16]: 0.84% | mfi [16]: 10 mfi | % Cell Staining [17]: 0.94% | mfi [17]: 15 mfi | % AsPC-1 Cells Stained [3]: 1.01% | % AsPC-1 tumor cell binding [3]: 1.55% | MFI [3]: 70 MFI | mfi [3]: 8 mfi
